Experiment [1] deals with AAV2.5T.LSV1 virion expressing GFP (AAV2.5T.LSV1-CMV-GFP). Nature of the experiment: cell-based or functional assay.
In experiment [2] the target is AAV2 virion expressing GFP (AAV2-CMV-GFP) (AAV2) (UniProt P03135). Description: cell-based or functional assay.

In the case of “pooled human IgG antibodies (Gammagard IVIG)”, the figures for the IC50 of inhibition of GFP expression in transduced 293T cells (reciprocal dilution of the pooled human IgG antibody sample at which GFP expression is reduced by 50%) (reciprocal dilution) in experiment [1] and in experiment [2] were 9.3 and 104, respectively.

Source of the values: patent US20200338146A1.
